Results on one molecule are retold here after article PMC7803729 (Nature Communications, 2021).

For orientation: Kd means the free concentration of one partner at which half of the binding sites on the other are occupied at equilibrium, for simple one-to-one binding. A high value points to weaker binding.

This experiment addresses SARS-CoV-2 S protein RBD (Arg319-Asn536) with a polyhistidine tag at the C-terminus, manufactured by Celltrion (SARS-CoV-2, Wuhan-Hu-1 (YP_009724390.1), UniProt P0DTC2). Nature of the experiment: SPR. The following applies: both partners purified.

B1: CT-P59 monoclonal antibody, full-length fully human IgG (antibody, V domains shown)
VH: QITLKESGPTLVKPTQTLTLTCSFSGFSLSTSGVGVGWIRQPPGKALEWLALIDWDDNKYHTTSLKTRLTISKDTSKNQVVLTMTNMDPVDTATYYCARIPGFLRYRNRYYYYGMDVWGQGTTVTVSS
VL: ELVLTQPPSVSAAPGQKVTISCSGSSSNIGNNYVSWYQQLPGTAPKLLIYDNNKRPSGIPDRFSGSKSGTSATLGITGLQTGDEADYYCGTWDSSLSAGVFGGGTELTVL
The molecule B1 gave a Kd of 0.027 nM.
